Measurements: paper PMC3900104

B1: Myc-tagged DISC1, in COS7 [human] / FLAG-tagged TRAK1 (trafficking-protein-Kinesin-binding-1), aa 2-953, in COS7 [human] (parent)
chain 1: MPGGGPQGAPAAAGGGGVSHRAGSRDCLPPAACFRRRRLARRPGYMRSSTGPGIGFLSPAVGTLFRFPGGVSGEESHHSESRARQCGLDSRGLLVRSPVSKSAAAPTVTSVRGTSAHFGIQLRGGTRLPDRLSWPCGPGSAGWQQEFAAMDSSETLDASWEAACSDGARRVRAAGSLPSAELSSNSCSPGCGPEVPPTPPGSHSAFTSSFSFIRLSLGSAGERGEAEGCPPSREAESHCQSPQEMGAKAASLDGPHEDPRCLSRPFSLLATRVSADLAQAARNSSRPERDMHSLPDMDPGSSSSLDPSLAGCGGDGSSGSGDAHSWDTLLRKWEPVLRDCLLRNRRQMEVISLRLKLQKLQEDAVENDDYDKAETLQQRLEDLEQEKISLHFQLPSRQPALSSFLGHLAAQVQAALRRGATQQASGDDTHTPLRMEPRLLEPTAQDSLHVSITRRDWLLQEKQQLQKEIEALQARMFVLEAKDQQLRREIEEQEQQLQWQGCDLTPLVGQLSLGQLQEVSKALQDTLASAGQIPFHAEPPETIRSLQERIKSLNLSLKEITTKVCMSEKFCSTLRKKVNDIETQLPALLEAKMHAISGNHFWTAKDLTEEIRSLTSEREGLEGLLSKLLVLSSRNVKKLGSVKEDYNRLRREVEHQETAYETSVKENTMKYMETLKNKLCSCKCPLLGKVWEADLEACRLLIQSLQLQEARGSLSVEDERQMDDLEGAAPPIPPRLHSEDKRKTPLKVLEEWKTHLIPSLHCAGGEQKEESYILSAELGEKCEDIGKKLLYLEDQLHTAIHSHDEDLIQSLRRELQMVKETLQAMILQLQPAKEAGEREAAASCMTAGVHEAQA
chain 2: ALVFQFGQPVRAQPLPGLCHGKLIRTNACDVCNSTDLPEVEIISLLEEQLPHYKLRADTIYGYDHDDWLHTPLISPDANIDLTTEQIEETLKYFLLCAERVGQMTKTYNDIDAVTRLLEEKERDLELAARIGQSLLKKNKTLTERNELLEEQVEHIREEVSQLRHELSMKDELLQFYTSAAEESEPESVCSTPLKRNESSSSVQNYFHLDSLQKKLKDLEEENVVLRSEASQLKTETITYEEKEQQLVNDCVKELRDANVQIASISEELAKKTEDAARQQEEITHLLSQIVDLQKKAKACAVENEELVQHLGAAKDAQRQLTAELRELEDKYAECMEMLHEAQEELKNLRNKTMPNTTSRRYHSLGLFPMDSLAAEIEGTMRKELQLEEAESPDITHQKRVFETVRNINQVVKQRSLTPSPMNIPGSNQSSAMNSLLSSCVSTPRSSFYGSDIGNVVLDNKTNSIILETEAADLGNDERSKKPGTPGTPGSHDLETALRRLSLRRENYLSERRFFEEEQERKLQELAEKGELRSGSLTPTESIMSLGTHSRFSEFTGFSGMSFSSRSYLPEKLQIVKPLEGSATLHHWQQLAQPHLGGILDPRPGVVTKGFRTLDVDLDEVYCLNDFEEDDTGDHISLPRLATSTPVQHPETSAHHPGKCMSQTNSTFTFTTCRILHPSDELTRVTPSLNSAPTPACGSTSHLKSTPVATPCTPRRLSLAESFTNTRESTTTMSTSLGLVWLLKERGISAAVYDPQSWDRAGRGSLLHSYTPKMAVIPSTPPNSPMQTPTSSPPSFEFKCTSPPYDNFLASKPASSILREVREKNVRSSESQTDVSVSNLNLVDKVRRFGVAKVVNSGRAHVPTLTEEQGPLLCGPPGPAPALVPRGLVPEGLPLRCPTVTSAIGGLQLNSGIRRNRSFPTMVGSSMQMKAPVTLTSGILMGAKLSKQTSLR

Variants of: B1
Experiment: co-immunoprecipitation (IP with Myc antibody, WB anti-FLAG), quantified
Conditions: with FLAG-tagged TRAK1 (trafficking-protein-Kinesin-binding-1), COS7 cells, n = 3 independent transfections, parent: 100, read off a plot

| percent of parent | Variant |
| --- | --- |
| 43 % of DISC1 | chain 1 R35A R36A R37A R38A R41A R42A R47A |
